From patent publication US9809808B2, “Antimicrobial agents” (KATHOLIEKE UNIVERSITEIT LEUVEN K.U. LEUVEN R&D, priority 2008, dated 2017)
Read-outs that look alike come from different tables or passages of the source.

Tests used:
Escherichia coli WK6 [1] = experiment: Antibacterial activity of P2gp09 and PKP2gp09 with and without EDTA (30 minutes, colony count); assay type: cell-based; conditions: for relative inactivation in logarithmic units (log10N0/Ni): 30 minutes
Description: To determine the anti-Gram-negative spectrum of the PK2gp09 endolysin according to SEQ ID NO: 57, a combination of 1.315 μM PK2gp09 endolysin and 0,5 mM EDTA was tested on the clinical P. aeruginosa strains PAO1p and Br667 and on Escherichia coli WK6 (see Table 9). Exponential growing bacterial cells (OD600 nm of 0.6) were 100-fold diluted to a final density of about 10^6/ml of each strain was incubated for 30 minutes at room temperature without shaking with unmodified endolysin P2gp09 (SEQ ID NO: 9) and modified endolysin PKP2gp09 (SEQ ID NO: 57) each in combination without and with 0.5 mM EDTA. […] As a control each strain was also incubated for 30 minutes with 0.5 mM EDTA (in same buffer as outlined above) but no endolysin. After incubation cell suspensions were diluted three times (respectively 10^5-10^4-10^3 cells/ml) and 100 μl of each dilution was plated out on LB-medium.

P. putida G1 [2] = assay type: cell-based, Pseudomonas putida; conditions: 0.5 mM EDTA, no endolysin, 30 minutes
Escherichia coli WK6 [3] = assay type: cell-based; conditions: 0.5 mM EDTA, no endolysin, 30 minutes
P. aeruginosa Br667 [4] = experiment: Antibacterial activity of P2gp09 and PKP2gp09 with and without EDTA (30 minutes, colony count); assay type: cell-based, Pseudomonas aeruginosa; conditions: for relative inactivation in logarithmic units (log10N0/Ni): 30 minutes
[5] = test system: Salmonella typhimurium LT2; assay type: cell-based; conditions: 0.5 mM EDTA, no endolysin, 30 minutes
Escherichia coli WK6 [6] = experiment: Antibacterial activity of PSP3gp10 and PKPSP3gp10 with and without EDTA (30 minutes, colony count); assay type: cell-based
Description: (§1) To determine the anti-Gram-negative spectrum of the PKPSP3gp10 endolysin according to SEQ ID NO: 53, a combination of 1.315 μM PKPSP3gp10 endolysin and 0.5 mM EDTA was tested on the clinical P. aeruginosa strains PAO1p and Br667, Escherichia coli WK6, and Salmonella typhimurium (see Table 5). Exponential growing bacterial cells (OD600 nm of 0.6) were 100-fold diluted to a final density of about 10^6/ml of each strain were incubated for 30 minutes at room temperature without shaking with unmodified endolysin […] (SEQ ID NO: 8) and modified endolysin PKPSP3gp10 (SEQ ID NO: 53) each in combination without and with 0.5 mM EDTA. […] As a control each strain was also incubated for 30 minutes with 0.5 mM EDTA (in same buffer as outlined above) but no endolysin.
(§2) After incubation cell suspensions were diluted three times (respectively 10^5-10^4-10^3 cells/ml) and 100 μl of each dilution was plated out on LB-medium.

[7] = test system: Salmonella typhimurium LT2; experiment: as above; assay type: cell-based
Description: as §1, §2

P. aeruginosa Br667 [8] = experiment: as above; assay type: cell-based, Pseudomonas aeruginosa
[9] = test system: Pseudomonas aeruginosa PAO1p cells; experiment: Effect of different EDTA and endolysin concentrations on antibacterial activity of OBPgpLYS and PKOBPgpLYS; assay type: cell-based; conditions: no endolysin
Description: To determine the influence of EDTA on the antibacterial activity of unmodified and modified endolysins the antibacterial activity of the unmodified OBPgpLYS endolysin (SEQ ID NO: 7) and the PKOBPgpLYS endolysin (SEQ ID NO: 61) was tested on Pseudomonas aeruginosa PAO1p cells ([…] et al. J Clin Microbiol., 41(3):1192-1202 (2003)) using different concentrations of EDTA and endolysins. Exponential growing bacterial cells (OD600 nm of 0.6) were 100-fold diluted to a final density of about 10^6/ml and incubated for 30 minutes at room temperature without shaking with unmodified endolysin OBPgpLYS (SEQ ID NO: 7) and modified endolysin PKOBPgpLYS (SEQ ID NO: 61). […] Thereby, the following different EDTA concentrations were used: 0 mM, 0.05 mM, 0.5 mM and 10 mM. […] After incubation cell suspensions were diluted three times (respectively 10^5-10^4-10^3 cells/ml) and 100 μl of each dilution was plated out on LB-medium. […] All samples were replicated in threefold. Averages+/-standard deviations are represented.

P. aeruginosa Br667 [10] = assay type: cell-based, Pseudomonas aeruginosa; conditions: 0.5 mM EDTA, no endolysin, 30 minutes
P. putida G1 [11] = experiment: Antibacterial activity of P2gp09 and PKP2gp09 with and without EDTA (30 minutes, colony count); assay type: cell-based, Pseudomonas putida; conditions: for relative inactivation in logarithmic units (log10N0/Ni): 30 minutes
[12] = test system: Burkholderia pseudomallei; assay type: cell-based; conditions: for relative inactivation in logarithmic units (log10N0/Ni): 30 minutes
[13] = 1.315 μM endolysin + 0.5 mM EDTA

Row | Molecule | relative inactivation in logarithmic units (log10N0/Ni) (Escherichia coli WK6 [6]; [13]) | relative inactivation in logarithmic units (log10N0/Ni) (Escherichia coli WK6 [6]; 1.315 μM endolysin, no EDTA) | relative inactivation in logarithmic units (log10N0/Ni) [7, 13] | relative inactivation in logarithmic units (log10N0/Ni) ([7]; 1.315 μM endolysin, no EDTA) | relative inactivation in logarithmic units (log10N0/Ni) (P. aeruginosa Br667 [8]; [13]) | relative inactivation in logarithmic units (log10N0/Ni) (P. aeruginosa Br667 [8]; 1.315 μM endolysin, no EDTA) | relative inactivation in logarithmic units (log10N0/Ni) (Escherichia coli WK6 [1]; [13]) | relative inactivation in logarithmic units (log10N0/Ni) (Escherichia coli WK6 [1]; 1.315 μM endolysin, no EDTA) | relative inactivation in logarithmic units (log10N0/Ni) [12, 13] | relative inactivation in logarithmic units (log10N0/Ni) ([12]; 1.315 μM endolysin, no EDTA) | relative inactivation in logarithmic units (log10N0/Ni) (P. aeruginosa Br667 [4]; [13]) | relative inactivation in logarithmic units (log10N0/Ni) (P. aeruginosa Br667 [4]; 1.315 μM endolysin, no EDTA) | relative inactivation in logarithmic units (log10N0/Ni) (P. putida G1 [11]; [13]) | relative inactivation in logarithmic units (log10N0/Ni) (P. putida G1 [11]; 1.315 μM endolysin, no EDTA) | other results
1 | O=C([O-])CN(CCN(CC(=O)[O-])CC(=O)O)CC(=O)O.[Na+].[Na+] [EDTA, reference compound] | – | – | – | – | – | – | – | – | – | – | – | – | – | – | relative inactivation in logarithmic units (log10N0/Ni) (Escherichia coli WK6 [1]; 0.5 mM EDTA, no endolysin): 0.153 logarithmic units; relative inactivation in logarithmic units (log10N0/Ni) (P. putida G1 [2]): 0.412 +/− 0.055 logarithmic units; relative inactivation in logarithmic units (log10N0/Ni) (Escherichia coli WK6 [3]): 0.592 +/− 0.113 logarithmic units; relative inactivation in logarithmic units (log10N0/Ni) (P. aeruginosa Br667 [4]; 0.5 mM EDTA, no endolysin): 0.003 logarithmic units; relative inactivation in logarithmic units (log10N0/Ni) [5]: 0.054 +/− 0.048 logarithmic units; relative inactivation in logarithmic units (log10N0/Ni) (Escherichia coli WK6 [6]; 0.5 mM EDTA, no endolysin): 0.393 +/− 0.035 logarithmic units; relative inactivation in logarithmic units (log10N0/Ni) ([7]; 0.5 mM EDTA, no endolysin): 0.104 +/− 0.049 logarithmic units; relative inactivation in logarithmic units (log10N0/Ni) (P. aeruginosa Br667 [8]; 0.5 mM EDTA, no endolysin): 0.223 +/− 0.038 logarithmic units; relative inactivation in logarithmic units (log10N0/Ni) ([9]; 0.05 mM EDTA-Na2, 30 minutes): 0.028 +/− 0.008 log units; relative inactivation in logarithmic units (log10N0/Ni) ([9]; 0.5 mM EDTA-Na2, 30 minutes): 0.130 +/− 0.023 log units; relative inactivation in logarithmic units (log10N0/Ni) ([9]; 10 mM EDTA-Na2, 30 minutes): 1.827 +/− 0.052 log units; relative inactivation in logarithmic units (log10N0/Ni) (P. aeruginosa Br667 [10]): 0.031 +/− 0.023 logarithmic units; relative inactivation in logarithmic units (log10N0/Ni) (P. putida G1 [11]; 0.5 mM EDTA, no endolysin): 0.072 logarithmic units
2 | PSP3gp10: SEQ ID NO: 8: unmodified globular endolysin with 165 amino acid residues originating from Salmonella typhimurium phage PSP3 (protein, PSP3gp10) MPVINTHQNIAAFLDMLAYSEGTANHPLTKNRGYDVIVTGFDGSPEIFTDYSDHPFAHGRPPKVFNRRGEKSTASGRYQQLYIFWPHYKKQLALPDFSPLSQDKLAIQLIRERGAIDDIRAGRIERAVSRCRNIWASLPGAGYGQREHSLEKLVTVWRTAGGVMA | 0.387 +/− 0.014 logarithmic units | 0.190 +/− 0.029 logarithmic units | 0.690 +/− 0.036 logarithmic units | 0.283 +/− 0.038 logarithmic units | 0.571 +/− 0.035 logarithmic units | 0.375 +/− 0.056 logarithmic units | – | – | – | – | – | – | – | – | –
3 | P2gp09: SEQ ID NO: 9: unmodified globular endolysin of 165 amino acid residues originating from Escherichia coli phage P2 (protein, P2gp09) MPVINTHQNIAAFLDMLAVSEGTANHPLTKNRGYDVIVTGLDGKPEIFTDYSDHPFAHGRPAKVFNRRGEKSTASGRYQQLYLFWPHYRKQLALPDFSPLSQDRLAIQLIRERGALDDIRAGRIERAISRCRNIWASLPGAGYGQREHSLEKLVTVWRTAGGVPA | – | – | – | – | – | – | 0.784 logarithmic units | 0.751 logarithmic units | 3.8909 logarithmic units | 0.769 logarithmic units | 0.582 logarithmic units | 0.246 logarithmic units | 3.919 logarithmic units | 0.419 logarithmic units | –
4 | PKPSP3gp10: SEQ ID NO: 53: PSP3gp10 (SEQ ID NO: 8) with N-terminal peptide stretch KRKKRKKRK (SEQ ID NO: 11) (protein, PKPSP3gp10) MGSKRKKRKKRKPVINTHQNIAAFLDMLAYSEGTANHPLTKNRGYDVIVTGFDGSPEIFTDYSDHPFAHGRPPKVFNRRGEKSTASGRYQQLYIFWPHYKKQLALPDFSPLSQDKLAIQLIRERGAIDDIRAGRIERAVSRCRNIWASLPGAGYGQREHSLEKLVTVWRTAGGVMA | 0.584 +/− 0.024 logarithmic units | 0.205 +/− 0.088 logarithmic units | 0.850 +/− 0.032 logarithmic units | 0.327 +/− 0.057 logarithmic units | 0.891 +/− 0.118 logarithmic units | 0.353 +/− 0.086 logarithmic units | – | – | – | – | – | – | – | – | –
5 | PKP2gp09: SEQ ID NO: 57: P2gp09 (SEQ ID NO: 9) with N-terminal peptide stretch KRKKRKKRK (SEQ ID NO: 11) (protein, PKP2gp09) MGSKRKKRKKRKPVINTHQNIAAFLDMLAVSEGTANHPLTKNRGYDVIVTGLDGKPEIFTDYSDHPFAHGRPAKVFNRRGEKSTASGRYQQLYLFWPHYRKQLALPDFSPLSQDRLAIQLIRERGALDDIRAGRIERAISRCRNIWASLPGAGYGQREHSLEKLVTVWRTAGGVPA | – | – | – | – | – | – | 1.545 +/− 0.102 logarithmic units | 1.104 +/− 0.039 logarithmic units | 4.255 +/− 0.001 logarithmic units | 1.163 +/− 0.073 logarithmic units | 0.952 +/− 0.213 logarithmic units | 0.300 +/− 0.062 logarithmic units | >4,386 logarithmic units | 1.014 +/− 0.139 logarithmic units | Δ, difference of activity between P2gp09 and PKP2gp09 samples (Escherichia coli WK6 [1]; 1.315 μM + 0.5 mM EDTA): 0.749 logarithmic units; Δ, difference of activity between P2gp09 and PKP2gp09 samples (Escherichia coli WK6 [1]; 1.315 μM, no EDTA): 0.353 logarithmic units; Δ, difference of activity between P2gp09 and PKP2gp09 samples ([12]; 1.315 μM + 0.5 mM EDTA): 0.365 logarithmic units; Δ, difference of activity between P2gp09 and PKP2gp09 samples ([12]; 1.315 μM, no EDTA): 0.394 logarithmic units; Δ, difference of activity between P2gp09 and PKP2gp09 samples (P. aeruginosa Br667 [4]; 1.315 μM + 0.5 mM EDTA): 0.370 logarithmic units; Δ, difference of activity between P2gp09 and PKP2gp09 samples (P. aeruginosa Br667 [4]; 1.315 μM, no EDTA): 0.054 logarithmic units; Δ, difference of activity between P2gp09 and PKP2gp09 samples (P. putida G1 [11]; 1.315 μM + 0.5 mM EDTA): >0.467 logarithmic units; Δ, difference of activity between P2gp09 and PKP2gp09 samples (P. putida G1 [11]; 1.315 μM, no EDTA): 0.595 logarithmic units
